From article PMC6895266, “Zika virus NS3 is a canonical RNA helicase stimulated by NS5 RNA polymerase”

How the values were obtained:
[1] = biological target: ZIKV NS5, purified recombinant (UniProt A0A024B7W1); experiment: co-immunoprecipitation (IP Myc) with purified proteins, western blot quantification; conditions: parent: est. 1.0; read off a plot
[2] = biological target: NS3F (full-length NS3) WT (Zika virus, UniProt A0A2D0WX26 1504-2119); experiment: fluorescence polarization; 5 mM MgCl2, no ATP; conditions: protein: recombinant; tags: His; Myc (anti-myc blot); label: Cy3 (printed before the 5' end); single strand

Molecule | ratio to parent [1] | Kd [2] [nM]
ZIKV full-length NS3 (NS3F, residues 2-617), purified recombinant N569A; E573A | 0.16 | –
GCGUCUUUACGGUGCU (ssRNA) [Cy3-ssRNA 16-mer] | – | 99 ± 7
